Drawing on doi:10.1101/2024.11.01.621505, this text covers Gi activation: area over the G⍺i-Gβγ dissociation curve (AOC), against CCR9 WT for one substance.

This test deals with CCR9 ΔCT (human) (UniProt P51686).
Chain of UniProt P51686 (P51686 1-334, stated change not applied): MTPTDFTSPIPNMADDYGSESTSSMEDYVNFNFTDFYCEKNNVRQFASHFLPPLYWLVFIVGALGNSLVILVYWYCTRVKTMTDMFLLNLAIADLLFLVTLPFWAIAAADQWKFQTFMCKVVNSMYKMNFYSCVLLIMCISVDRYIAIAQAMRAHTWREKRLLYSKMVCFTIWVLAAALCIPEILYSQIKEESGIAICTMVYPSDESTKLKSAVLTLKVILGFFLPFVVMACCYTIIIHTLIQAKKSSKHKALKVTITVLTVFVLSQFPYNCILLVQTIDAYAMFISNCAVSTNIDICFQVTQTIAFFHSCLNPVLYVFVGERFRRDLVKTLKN

“G⍺i-Nluc (from UniProt P63096 1-354) (natural protein)”: the Gi activation: area over the G⍺i-Gβγ dissociation curve (AOC), against CCR9 WT stood at 6 fold.
